Assay results: paper PMC2888680

Tests used:
[1] = anti-NEU1 immunoblot, Phoenix-A lysates; conditions: glycan lost; control: wild-type mNEU1
[2] = 4-MU-NANA activity, Phoenix-A lysates, PPCA coexpressed; conditions: glycan lost; control: wild-type mNEU1
[3] = 4-MU-NANA activity, neu1-/- fibroblasts, PPCA cotransduced; conditions: glycan lost; control: wild-type mNEU1 coexpressed with PPCA
[4] = anti-NEU1 immunoblot, transduced NEU1-deficient fibroblasts; conditions: glycan lost; control: wild-type mNEU1
[5] = 4-MU-NANA activity, neu1-/- fibroblasts, endogenous PPCA only; conditions: glycan lost; control: wild-type mNEU1
[6] = limited in vitro trypsin proteolysis of purified protein; conditions: glycan lost; control: wild-type mNEU1

Substance | expression_or_secretion [1] | enzymatic_activity, percent_of_wt [2] | enzymatic_activity [3] | expression_or_secretion [4] | enzymatic_activity, percent_of_wt [5] | stability_or_folding [6]
murine NEU1 (mNEU1): N372D (mut4) | no change | no change | no change | no change | no change | no change
murine NEU1 (mNEU1): N337D (mut2) | no change | decreases | no change | decreases |  | no change
murine NEU1 (mNEU1): N346D (mut3) | no change | decreases |  | decreases | decreases | no change
murine NEU1 (mNEU1): N180D (mut1) | decreases |  |  |  |  | decreases
